Measured values published in patent US7803377B2, “Anti-DLL4 antibodies and methods using same” (Genentech, Inc., priority 2006, dated 2010).

What was measured:
[1] = test system: non-small lung cancer H1299 cells; assay: Tumor model H1299; type: in vivo, mouse; conditions: 5 mg/kg, IP, twice weekly after establishment of the tumors
Method: (§1) Tumor models. Beige nude female mice of 8- to 10-week-old were used. To obtain subcutaneous tumors, mice were injected with 0.1 ml cell suspension containing 50% matrigel (BD Bioscience) into the right posterior flank. 5×10^6 human colon cancer HM7 cells, 10×10^6 human colon carcinoma Colo205 cells, 10×10^6 human lung carcinoma Calu6 cells, 10×10^6 human lung carcinoma MV-522 cells, 10×10^6 mouse leukemia WEHI-3 cells, 10×10^6 mouse lymphoma EL4 cells, 10×10^6 human ovarian cancer SK-OV-3 X1 cells, 10×06 mouse lung cancer LL2 cells, 10×10^6 leukemia/lymphoma EL4 cells, or 10×10^6 non-small lung cancer H1299 cells were injected into each mouse. For human melanoma MDA-MB-435 model, mice were injected into the mammary fat pad with 0.1 ml cell (5×10^6) suspension containing 50% matrigel. […] For the following tumor models, each test mouse received a subcutaneous tumor fragment (1 mm^3) implanted in the right flank: non-small lung cancer SKMES-1, human breast cancer MX-1, human colorectal cancer SW620 and human adenocarcinoma LS174T. The tumor growth was quantitated by caliper measurements. Tumor volume (mm^3) was determined by measuring the length (l) and width (w) and calculating the volume (V=lw2/2). 10 to 15 animals were included in each group. Statistical comparison of treatment groups was performed using two-tailed Student's t-test. […]

[2] = target: T1, murine Delta4 (ECD5.5) (Mus musculus, UniProt Q9JI71); assay: Surface plasmon resonance (BIAcore-3000) binding affinity and kinetics; conditions: murine DLL4-His; Kd calculated as koff/kon
T1 construct: murine Delta4 (ECD5.5); His
Method: (§2) To determine the binding affinity of the anti-DLL4 Mabs, surface plasmon resonance (SRP) measurement with a BIAcore™-3000 was used (BIAcore, Inc., Piscataway, N.J.). Briefly, carboxymethylated dextran biosensor chips (CM5, BIAcore Inc.) were activated with N-ethyl-N′-(3-dimethylaminopropyl)-carbodiimide hydrochloride (EDC) and N-hydroxysuccinimide (NHS) according to the supplier's instructions. Anti-DLL4 antibody was diluted with 10 mM sodium acetate, pH 4.8, into 5 μg/ml before injection at a flow rate of 5 μl/minute to achieve approximately 500 response units (RU) of coupled antibody. Next, IM ethanolamine was injected to block unreacted groups. For kinetics measurements, two-fold serial dilutions of either human or murine DLL4-His molecules (0.7 nM to 500 nM) were injected in PBS with 0.05% Tween™ 20 at 25° C. at a flow rate of 25 μl/min. Association rates (kon) and dissociation rates (koff) were calculated using a simple one-to-one Langmuir binding model (BIAcore Evaluation Software version 3.2). The equilibrium dissociation constant (Kd) was calculated as the ratio koff/kon.

[3] = target: T2, human Delta4 (ECD5.5) (Homo sapiens, UniProt Q9NR61); assay: as above; conditions: human DLL4-His; Kd calculated as koff/kon; listed as YW26.81
T2 construct: DLL4-His (C-terminal His-tagged human DLL4, amino acid 1-404); His (C)
Method: as §2

[4] = test system: adult retinal vasculature; assay: Adult mouse retina vasculature (ASMA and isolectin staining); type: in vivo; conditions: 8 week-old mice, 10 mg/kg, twice weekly for two weeks
From the text: FIG. 8: DLL4-mediated Notch signaling regulated EC differentiation. a, The lumen-like structures (white arrows) formed by HUVECs growing in fibrin gels were lost in the presence of anti-DLL4 antibody or DBZ. Instead, the spouts were highly packed with cells (black arrows). b, Regulation of TGFβ2 by Notch. Quantitative PCR analysis of TGFβ2 expression in response to, Notch blockade in 3-D fibrin gel culture of HUVECs for (7 d) by anti-DLL4 antibody or DBZ (left), or Notch activation in 2-D culture of HUVECs (36 hr) by immobilized DLL4 (right). c, Anti-DLL4 antibody blocks arterial development. Confocal images of neonatal mouse retinas stained with alpha smooth muscle actin (ASMA) and isolectin. Neonatal mice were treated as described in FIG. 1d. d, Confocal images of adult mouse retinas stained with ASMA and isolectin. 8 week-old mice were treated with PBS or anti-DLL4 antibody (10 mg/kg, twice weekly) for two weeks.
(§3) Thus, DLL4/Notch signaling is critical during active angiogenesis, but plays a less important role in normal vessel maintenance.

[5] = test system: mouse lung cancer LL2 cells; assay: Tumor model LL2; type: in vivo; conditions: 5 mg/kg, IP, twice weekly after establishment of the tumors
Method: as §1

[6] = Tolerability in tumor-bearing mice; type: in vivo, mouse; conditions: 10 mg/kg twice per week for up to 8 weeks
From the text: as §3

[7] = test system: human lung carcinoma Calu6 cells; assay: Tumor model Calu6; type: in vivo, mouse; conditions: treatment initiated at ≧250 mm^3; 10 mg/kg i.p. twice weekly; two weeks of treatment
Method: as §1

T1 sequence (Q9JI71 27-405 limits assumed): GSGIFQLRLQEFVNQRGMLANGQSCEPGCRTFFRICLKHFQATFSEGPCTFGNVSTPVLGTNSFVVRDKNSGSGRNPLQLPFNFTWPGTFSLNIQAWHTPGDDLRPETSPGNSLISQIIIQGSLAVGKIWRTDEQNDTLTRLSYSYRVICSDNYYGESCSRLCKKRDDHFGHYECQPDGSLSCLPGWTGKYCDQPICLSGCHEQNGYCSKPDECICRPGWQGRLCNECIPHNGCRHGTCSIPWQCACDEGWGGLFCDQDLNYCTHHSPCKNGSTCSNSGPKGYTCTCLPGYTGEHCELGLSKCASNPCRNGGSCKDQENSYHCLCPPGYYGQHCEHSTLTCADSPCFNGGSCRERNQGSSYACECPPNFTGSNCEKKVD
T2 sequence (Q9NR61 27-404): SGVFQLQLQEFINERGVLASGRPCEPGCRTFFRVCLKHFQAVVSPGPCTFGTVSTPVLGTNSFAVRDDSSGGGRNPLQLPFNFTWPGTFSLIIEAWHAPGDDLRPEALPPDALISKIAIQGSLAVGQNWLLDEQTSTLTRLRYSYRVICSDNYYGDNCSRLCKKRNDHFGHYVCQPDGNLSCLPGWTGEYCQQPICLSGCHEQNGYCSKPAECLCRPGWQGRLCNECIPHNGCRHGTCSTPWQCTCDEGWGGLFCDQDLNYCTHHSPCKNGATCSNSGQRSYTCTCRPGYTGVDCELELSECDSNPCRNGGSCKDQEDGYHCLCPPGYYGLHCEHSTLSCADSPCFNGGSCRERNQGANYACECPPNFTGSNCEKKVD

YW26.82: affinity matured anti-DLL4 monoclonal antibody; HVR-H1/H2/H3 SEQ ID NO:1, 8, 9; HVR-L1/L2/L3 SEQ ID NO:10, 11, 18
tumor growth, single agent [1]: inhibited tumor growth alone | Kd [2]: 90 pM | Kd [3]: 100 pM | impact on adult retinal vasculature [4]: no visible impact on adult retinal vasculature | tumor growth, single agent [5]: inhibited tumor growth alone | weight loss or animal death [6]: no apparent weight loss or animal death | tumor volume [7]: remained static
